# B1: Gic1(104-314) (domain or fragment, yeast (S. cerevisiae), UniProt P38785 104-314, looked up)
# chain: MFKKKDLLSRRHGSAKTAKQSSISTPFDFHHISHANGKREDNPLESHEEKHDVESLVKFTSLAPQPRPDSNVSSKYSNVVMNDSSRIVSSSTIATTMDSHHDGNETNNTPNGNKQLDSPTDLEMTLEDLRNYTFPSVLGDSVSEKTNPSSPSVSSFSGKFKPRELSALHTPELGNCFNVDQSLNSPGNRISVDDVLKFYYQCSETSTPRNT
# notes: Gic1, yeast, residues 104-314 (N-terminal 103 amino acids deleted); gic1(310-942) in nucleotides; contains the CRIB domain and the C-terminus; Called simply Gic1 throughout the text; The methods say GST was cleaved with thrombin; Dimer by gel filtration; source: E. coli BL21 (DE3) Rosetta, purified (Ni-NTA, glutathione sepharose, Superdex S200)
# B2: yeast septin complex (Cdc3, Cdc10, Cdc11, Cdc12) (complex, yeast (S. cerevisiae))
# chain 1: MSLKEEQVSIKQDPEQEERQHDQFNDVQIKQESQDHDGVDSQYTNGTQNDDSERFEAAESDVKVEPGLGMGITSSQSEKGQVLPDQPEIKFIRRQINGYVGFANLPKQWHRRSIKNGFSFNLLCVGPDGIGKTTLMKTLFNNDDIEANLVKDYEEELANDQEEEEGQGEGHENQSQEQRHKVKIKSYESVIEENGVKLNLNVIDTEGFGDFLNNDQKSWDPIIKEIDSRFDQYLDAENKINRHSINDKRIHACLYFIEPTGHYLKPLDLKFMQSVYEKCNLIPVIAKSDILTDEEILSFKKTIMNQLIQSNIELFKPPIYSNDDAENSHLSERLFSSLPYAVIGSNDIVENYSGNQVRGRSYPWGVIEVDNDNHSDFNLLKNLLIKQFMEELKERTSKILYENYRSSKLAKLGIKQDNSVFKEFDPISKQQEEKTLHEAKLAKLEIEMKTVFQQKVSEKEKKLQKSETELFARHKEMKEKLTKQLKALEDKKKQLELSINSASPNVNHSPVPTKKKGFLR
# chain 2: MDPLSSVQPASYVGFDTITNQIEHRLLKKGFQFNIMVVGQSGLGKSTLINTLFASHLIDSATGDDISALPVTKTTEMKISTHTLVEDRVRLNINVIDTPGFGDFIDNSKAWEPIVKYIKEQHSQYLRKELTAQRERFITDTRVHAILYFLQPNGKELSRLDVEALKRLTEIANVIPVIGKSDTLTLDERTEFRELIQNEFEKYNFKIYPYDSEELTDEELELNRSVRSIIPFAVVGSENEIEINGETFRGRKTRWSAINVEDINQCDFVYLREFLIRTHLQDLIETTSYIHYEGFRARQLIALKENANSRSSAHMSSNAIQR
# chain 3: MSGIIDASSALRKRKHLKRGITFTVMIVGQSGSGRSTFINTLCGQQVVDTSTTILLPTDTSTEIDLQLREETVELEDDEGVKIQLNIIDTPGFGDSLDNSPSFEIISDYIRHQYDEILLEESRVRRNPRFKDGRVHCCLYLINPTGHGLKEIDVEFIRQLGSLVNIIPVISKSDSLTRDELKLNKKLIMEDIDRWNLPIYNFPFDEDEISDEDYETNMYLRTLLPFAIIGSNEVYEMGGDVGTIRGRKYPWGILDVEDSSISDFVILRNALLISHLHDLKNYTHEILYERYRTEALSGESVAAESIRPNLTKLNGSSSSSTTTRRNTNPFKQSNNINNDVLNPASDMHGQSTGENNETYMTREEQIRLEEERLKAFEERVQQELLLKRQELLQREKELREIEARLEKEAKIKQEE
# chain 4: MSAATATAAPVPPPVGISNLPNQRYKIVNEEGGTFTVMLCGESGLGKTTFINTLFQTVLKRADGQQHRQEPIRKTVEIDITRALLEEKHFELRVNVIDTPGFGDNVNNNKAWQPLVDFIDDQHDSYMRQEQQPYRTKKFDLRVHAVLYFIRPTGHGLKPIDIETMKRLSTRANLIPVIAKADTLTAQELQQFKSRIRQVIEAQEIRIFTPPLDADSKEDAKSGSNPDSAAVEHARQLIEAMPFAIVGSEKKFDNGQGTQVVARKYPWGLVEIENDSHCDFRKLRALLLRTYLLDLISTTQEMHYETYRRLRLEGHENTGEGNEDFTLPAIAPARKLSHNPRYKEEENALKKYFTDQVKAEEQRFRQWEQNIVNERIRLNGDLEEIQGKVKKLEEQVKSLQVKKSHLK
# notes: Cdc3, yeast septin; Cdc10, yeast septin; Cdc11, yeast septin; Cdc12, yeast septin; Octamer at high salt (500 mM NaCl), filaments at low salt (100 mM NaCl); also called septin octamers; septin filaments; source: expressed and purified as described earlier (Farkasovsky et al., 2005); copies: 2 + 2 + 2 + 2
# What was measured:
# [1] = biological target: the molecule itself; assay: SEC; gel filtration of purified Gic1(104-314) alone against protein standards; calculated 23.38 kDa, elutes at 49 kDa; monomer to dimer
# [2] = biological target: T1, septin-Cdc11Δ complex (Cdc3, Cdc10, Cdc12) (yeast (S. cerevisiae), UniProt P32457 1-520; P25342 1-322; P32468 1-407); assay: negative-stain electron microscopy with single particle analysis; 0.3 µM septin hetero-oligomers, alone or with 1.5 µM Gic1, dialysed overnight at 4°C from high-salt buffer against low-salt buffer (100 mM NaCl, 20 mM Tris-HCl pH 7.5, 1 mM DTT); antibody labelling against Cdc11; adsorbed to a lipid monolayer; conditions: both partners purified
# T1 construct: Cdc3, yeast septin; Cdc10, yeast septin; Cdc12, yeast septin; Septin complex devoid of the Cdc11 subunit; copies: + +
# T1 sequence (looked up) 1: B2 chain 1
# T1 sequence (looked up) 2: B2 chain 2
# T1 sequence (looked up) 3: B2 chain 4
# [3] = biological target: B2; assay: as above; conditions: both partners purified
# [4] = biological target: T2, Cdc10 (subunit of the purified yeast septin complex) (yeast (S. cerevisiae), UniProt P25342 1-322); assay: as above; conditions: both partners purified
# T2 construct: Cdc10, yeast septin; Never tested alone: it stood inside the complex m2; the subunit that is touched was assigned from antibody labelling, complexes lacking subunits and the known order of the subunits; source: subunit of the septin complex expressed and purified as described earlier (Farkasovsky et al., 2005)
# T2 sequence (looked up): B2 chain 2
# [5] = biological target: T3, Cdc10(30-322) (subunit of the septin-Cdc10(30-322) complex) (yeast (S. cerevisiae), UniProt P25342 30-322); assay: as above; conditions: both partners purified
# T3 construct: Never tested alone: it stood inside the complex m5
# T3 sequence (looked up): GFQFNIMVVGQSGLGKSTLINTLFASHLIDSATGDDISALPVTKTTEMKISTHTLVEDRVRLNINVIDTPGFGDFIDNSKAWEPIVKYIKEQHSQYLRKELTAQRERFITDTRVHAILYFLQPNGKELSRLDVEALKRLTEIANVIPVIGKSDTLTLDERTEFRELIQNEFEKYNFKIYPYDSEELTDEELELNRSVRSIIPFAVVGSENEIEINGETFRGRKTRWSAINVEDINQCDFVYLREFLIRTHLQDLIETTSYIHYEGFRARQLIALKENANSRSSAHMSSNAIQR
# [6] = biological target: T4, septin-Cdc10(30-322) complex (Cdc3, Cdc10(30-322), Cdc11, Cdc12) (yeast (S. cerevisiae), UniProt P32457 1-520; P25342 30-322; P32458 1-415; P32468 1-407); assay: as above; conditions: both partners purified
# T4 construct: Cdc3, yeast septin; Cdc11, yeast septin; Cdc12, yeast septin; Seen by EM as tetramers or inside-out octamers; no filaments at low salt; also called polymerization-impaired septin complexes; non-polymerizing septin; copies: + + +
# [7] = biological target: the molecule itself; assay: negative-stain electron microscopy with single particle analysis; 0.1 µM septin octamers, with or without 0.5 µM Gic1; Cdc42-GppNHp or Cdc42-GDP at the concentration of Gic1 or 10 times higher (0.25, 1.5, 5 µM), 2 to 60 min; antibody labelling against Cdc3
Binder,stoichiometry N [1],binding result [2],binding result [3],binding result [4],binding result [5],binding result [6],binding result [7]
B1,~2,binds,binds,binds,binds,binds,
B2,,,,,,,binds

# From paper PMC3840788, “The role of Cdc42 and Gic1 in the regulation of septin filament formation and dissociation” (eLife, 2013)
